Consider 94 variants from the supplement of paper PMC10567573.

First the molecules themselves.
B1: IQUB (parent)
chain: EADYEDDSKIAFLMQLQDIQYLTE
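Note: lentivirally expressed fusions sorted by FACS into six bins by GFP to DsRed ratio, PSI derived from sequencing read proportions per bin multiplied by bin number.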

The variants in this series derive from B1. The series can be described thus: protein stability index of a GFP-peptide fusion (GPS, HEK-293T) (PSI 1-6); higher = more stable. The note with it: c terminus: a fixed tail appended.
On to EADYEDDSKIAFEMQLQDIQYLTE [L13E], for which the protein stability index worked out at 4.54.
Consider EADYEDDSKIAFFMQLQDIQYLTE [L13F], for which the protein stability index came out at 2.85.
As to EADYEDDSKIAFLEQLQDIQYLTE [M14E], the protein stability index came to 4.06.
Next, EADYEDDSKIAFLKQLQDIQYLTE [M14K]: 3.77; EADYEDDSKIAFLSQLQDIQYLTE [M14S]: 3.95; EADYEDDSKIAFLGQLQDIQYLTE [M14G]: 4.37.
The same measure for EADYEDDSKIAFLDQLQDIQYLTE [M14D]: 4.27; for EADYEDDSKIAFLTQLQDIQYLTE [M14T]: 4.04; for EADYEDDSKIAFLFQLQDIQYLTE [M14F]: 2.46.
As for EADYEDDSKIAFLHQLQDIQYLTE [M14H], the protein stability index stood at 3.96.
On to EADYEDDSVIAFLMQLQDIQYLTE [K9V], for which the protein stability index worked out at 2.3.
For EADYEDDSIIAFLMQLQDIQYLTE [K9I], the protein stability index is 1.83.
With EADYEDDSGIAFLMQLQDIQYLTE [K9G], the protein stability index was 2.81.
The same measure for EADYEDDSCIAFLMQLQDIQYLTE [K9C]: 1.86.
In the case of EADYEDDSFIAFLMQLQDIQYLTE [K9F], the protein stability index is 2.32.
On to CADYEDDSKIAFLMQLQDIQYLTE [E1C], for which the protein stability index amounted to 2.61.
With KADYEDDSKIAFLMQLQDIQYLTE [E1K], the protein stability index amounted to 2.27.
Next, GADYEDDSKIAFLMQLQDIQYLTE [E1G]: 2.79.
For WADYEDDSKIAFLMQLQDIQYLTE [E1W], the protein stability index was 2.17.
Take TADYEDDSKIAFLMQLQDIQYLTE [E1T]: the protein stability index came to 2.47.
Consider SADYEDDSKIAFLMQLQDIQYLTE [E1S], for which the protein stability index is 2.65.
Next, NADYEDDSKIAFLMQLQDIQYLTE [E1N]: 2.85; PADYEDDSKIAFLMQLQDIQYLTE [E1P]: 2.6; DADYEDDSKIAFLMQLQDIQYLTE [E1D]: 3.56.
For the variant FADYEDDSKIAFLMQLQDIQYLTE [E1F], the protein stability index was determined as 1.99.
Turning to MADYEDDSKIAFLMQLQDIQYLTE [E1M], the protein stability index was found to be 2.38.
Next, EADYEDDSKIAFLMQDQDIQYLTE [L16D]: 4.58; EADYEDDSKIAFLMQEQDIQYLTE [L16E]: 3.96; EADYEDDSKIAFLMQQQDIQYLTE [L16Q]: 4.19.
The same measure for EADYEDDSKIAFLMQPQDIQYLTE [L16P]: 4.37; for EADYEDDSKIAFLMQSQDIQYLTE [L16S]: 4.26.
For EADYEDDSKIAFLMQAQDIQYLTE [L16A], the protein stability index was 4.13.
With EADYEDDSKIAFLMQVQDIQYLTE [L16V], the protein stability index stood at 3.71.
The same measure for EADYEDDSKIAFLMQTQDIQYLTE [L16T]: 3.75.
As for EADYEDDSKIAFLMQLQDIKYLTE [Q20K], the protein stability index amounted to 3.46.
Turning to EADYEDDSKIAFLMQLQDIGYLTE [Q20G], the protein stability index was determined as 2.97.
Take EADYEDDSKIAFLMQLQDIVYLTE [Q20V]: the protein stability index worked out at 2.19.
For the variant EADYEDDSKIAFLMQLQDIHYLTE [Q20H], the protein stability index turned out to be 3.12.
The same measure for EADYEDDSKIAFLMQLQDICYLTE [Q20C]: 2.2; for EADYEDDSKIAFLMQLQDIEYLTE [Q20E]: 3.98.
EADYEDDSKIAFLMQLQDIIYLTE [Q20I]: the protein stability index came out at 2.64.
On to EADYEDDSKIAFLMQLQDIWYLTE [Q20W], for which the protein stability index is 2.35.
Turning to EADYEDDSKIAFLMQLQDIRYLTE [Q20R], the protein stability index stood at 3.67.
EADYEDDSKIAFLMQLQDIYYLTE [Q20Y]: the protein stability index worked out at 1.62.
The same measure for EADYEDDSKIAFLMQLQDIPYLTE [Q20P]: 3.45; for EADYEDDSKIAFLMQLQDGQYLTE [I19G]: 4.31.
Next, EADYEDDSKIAFLMQLQDYQYLTE [I19Y]: 3.54; EADYEDDSKIAFLMQLQDTQYLTE [I19T]: 4.15; EADYEDDSKIAFLMQLQDFQYLTE [I19F]: 3.44.
In the case of EADYEDDSKIAFLMQLQDMQYLTE [I19M], the protein stability index amounted to 3.68.
EADYEDDSKIAFLMQLQDCQYLTE [I19C]: the protein stability index is 3.96.
Consider EADYEDDSKIAFLMQLQDHQYLTE [I19H], for which the protein stability index was determined as 3.98.
Next, EADYEDDSKIAFLMQLQDVQYLTE [I19V]: 3.86.
EADYDDDSKIAFLMQLQDIQYLTE [E5D]: the protein stability index was 3.42.
The same measure for EADYSDDSKIAFLMQLQDIQYLTE [E5S]: 2.24.
For the variant EADYFDDSKIAFLMQLQDIQYLTE [E5F], the protein stability index amounted to 2.38.
Consider EADYYDDSKIAFLMQLQDIQYLTE [E5Y], for which the protein stability index was 2.27.
Next, EADYGDDSKIAFLMQLQDIQYLTE [E5G]: 2.49; EADYVDDSKIAFLMQLQDIQYLTE [E5V]: 2.38; EADYCDDSKIAFLMQLQDIQYLTE [E5C]: 2.76.
The same measure for EADYEDDRKIAFLMQLQDIQYLTE [S8R]: 2.88; for EADYEDDMKIAFLMQLQDIQYLTE [S8M]: 2.7.
EADYEDDPKIAFLMQLQDIQYLTE [S8P]: the protein stability index is 2.6.
For the variant EADYEDDKKIAFLMQLQDIQYLTE [S8K], the protein stability index amounted to 3.34.
As to EADYEDDHKIAFLMQLQDIQYLTE [S8H], the protein stability index stood at 3.44.
In the case of EADYEDDFKIAFLMQLQDIQYLTE [S8F], the protein stability index came out at 1.89.
For the variant EADYEDDAKIAFLMQLQDIQYLTE [S8A], the protein stability index was determined as 3.23.
Next, EATYEDDSKIAFLMQLQDIQYLTE [D3T]: 2.48; EALYEDDSKIAFLMQLQDIQYLTE [D3L]: 2.02; EANYEDDSKIAFLMQLQDIQYLTE [D3N]: 2.87.
Next, EAEYEDDSKIAFLMQLQDIQYLTE [D3E]: 2.88; EAAYEDDSKIAFLMQLQDIQYLTE [D3A]: 2.1; EAGYEDDSKIAFLMQLQDIQYLTE [D3G]: 2.77.
Turning to EAKYEDDSKIAFLMQLQDIQYLTE [D3K], the protein stability index is 2.58.
As to EARYEDDSKIAFLMQLQDIQYLTE [D3R], the protein stability index was 2.34.
As for EAFYEDDSKIAFLMQLQDIQYLTE [D3F], the protein stability index was found to be 1.62.
Take EADYEDDSKIAFLMQLQDIQYNTE [L22N]: the protein stability index was 4.65.
EADYEDDSKIAFLMQLQDIQYETE [L22E]: the protein stability index amounted to 4.7.
Next, EADYEDDSKIAFLMQLQDIQYKTE [L22K]: 3.79.
For the variant EADYEDDSKIAFLMQLQDIQYATE [L22A], the protein stability index was 4.16.
Turning to EADYEDDSKIAFLMQLQDIQYHTE [L22H], the protein stability index came to 4.07.
Next, EADYEDDSKIAFLMQLQDIQYWTE [L22W]: 3.07; EADYEDDSKIAFLMQLQDIQYTTE [L22T]: 3.96; EADYEDDSKIAFLMQLQDIQYMTE [L22M]: 3.4.
As for EADYEDDSKIAFLMQLQDIQYGTE [L22G], the protein stability index was 4.5.
As to EADYEDDSKIAFLMQLQDIQYCTE [L22C], the protein stability index worked out at 3.67.
As to EADYEDDSKIAFLMQLQDIQYPTE [L22P], the protein stability index was determined as 4.51.
On to EADYEDDSKIAFLMQLQDIQYVTE [L22V], for which the protein stability index is 3.42.
Next, EADYEDDSKIMFLMQLQDIQYLTE [A11M]: 2.66; EADYEDDSKIEFLMQLQDIQYLTE [A11E]: 3.39; EADYEDDSKIQFLMQLQDIQYLTE [A11Q]: 3.49.
Turning to EADYEDDSKIYFLMQLQDIQYLTE [A11Y], the protein stability index turned out to be 2.02.
The same measure for EADYEDDSKINFLMQLQDIQYLTE [A11N]: 3.77; for EADYEDDSKIPFLMQLQDIQYLTE [A11P]: 3.82.
